In patent publication US20030021774A1 one finds Residual activity (%) on Suc-AAPF-pNA after incubation with SSI data, which are given here for one molecule.

What all share (experiment): cell-based or functional assay
The target in experiment [1] is protease derived from Acremonium chrysogenum ATCC 48272 (Acremonium chrysogenum ATCC 48272).
The target of experiment [2] is T1, Sub.Novo, subtilisin from Bacillus amyloliquefaciens (Bacillus amyloliquefaciens) (UniProt P00782).
T1 sequence (looked up): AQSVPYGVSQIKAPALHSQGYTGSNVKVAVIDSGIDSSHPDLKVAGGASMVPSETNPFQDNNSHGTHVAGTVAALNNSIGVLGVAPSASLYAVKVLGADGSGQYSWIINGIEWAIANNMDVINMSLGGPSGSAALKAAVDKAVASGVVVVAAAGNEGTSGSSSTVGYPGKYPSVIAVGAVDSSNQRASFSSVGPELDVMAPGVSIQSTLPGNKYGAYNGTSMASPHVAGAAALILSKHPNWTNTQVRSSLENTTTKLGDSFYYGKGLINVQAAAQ

In experiment [3] the target is T2, Sub.Novo(Y217L), mutant of subtilisin from Bacillus amyloliquefaciens (Bacillus amyloliquefaciens) (UniProt P00782).
T2 sequence (looked up): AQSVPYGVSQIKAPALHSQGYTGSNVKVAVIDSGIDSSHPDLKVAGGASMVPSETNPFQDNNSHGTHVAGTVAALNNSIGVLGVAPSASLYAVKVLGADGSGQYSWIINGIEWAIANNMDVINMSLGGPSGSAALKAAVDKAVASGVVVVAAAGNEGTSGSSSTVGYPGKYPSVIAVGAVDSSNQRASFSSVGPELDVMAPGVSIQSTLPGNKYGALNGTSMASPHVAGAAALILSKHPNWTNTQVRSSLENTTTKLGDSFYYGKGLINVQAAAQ

Experiment [4] concerns the target protease derived from Paecilomyces lilacinus CBS 102449 (Paecilomyces lilacinus CBS 102449).
The target in experiment [5] is T3, SAVINASE, subtilisin derived from Bacillus clausii (previously Bacillus lentus NCIB 10309) (Bacillus clausii (previously Bacillus lentus NCIB 10309)) (UniProt P29600).
T3 sequence (looked up): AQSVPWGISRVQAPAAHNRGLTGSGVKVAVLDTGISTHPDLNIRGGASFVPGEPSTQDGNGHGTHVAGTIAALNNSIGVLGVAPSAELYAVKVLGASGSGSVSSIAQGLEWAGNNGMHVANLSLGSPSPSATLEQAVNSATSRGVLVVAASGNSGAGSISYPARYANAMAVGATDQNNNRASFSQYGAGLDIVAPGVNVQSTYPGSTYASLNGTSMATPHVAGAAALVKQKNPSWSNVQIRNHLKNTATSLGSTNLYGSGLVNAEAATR

For experiment [6], the target named is protease derived from Fusarium oxysporum IFO 4471 (Fusarium oxysporum IFO 4471).
Experiment [7] concerns the target protease derived from Bacillus sp. NCIMB 40484 (Bacillus sp. NCIMB 40484).
Experiment [8] addresses protease derived from Aspergillus sp. CBS 102448.
Experiment [9] has as its target protease derived from Bacillus alcalophilus NCIMB 10438 (Bacillus alcalophilus NCIMB 10438).

Sequence of protease derived from Acremonium chrysogenum ATCC 48272 (Acremonium chrysogenum ATCC 48272) (P29118 other isoform, or with tags, fused parts or gaps): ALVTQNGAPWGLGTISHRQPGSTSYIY

B1: Streptomyces Subtilisin Inhibitor (SSI) (protein, UniProt P01006 32-144, looked up)
chain: DAPSALYAPSALVLTVGKGVSATTAAPERAVTLTCAPGPSGTHPAAGSACADLAAVGGDLNALTRGEDVMCPMVYDPVLLTVDGVWQGKRVSYERVFSNECEMNAHGSSVFAF
Regarding B1, the Residual activity (%) on Suc-AAPF-pNA after incubation with SSI in experiment [1] was found to be 0.1%; in experiment [2] it was 0.1%; in [3] it was 0%; in experiment [4], 0.1%; in experiment [5] it was 0%; in experiment [6], 0.1%. Besides, the figures for the Residual activity (%) on Suc-AAPF-pNA after incubation with SSI in experiment [7], in [8] and in [9] were 4.3%, 0.1% and 0%, respectively.
